The source of these data is the nanobody polyreactivity screen of Harvey et al. (2022).

This data set can be described thus: yeast display, Sf9 membrane polyspecificity reagent, FACS + sequencing; frameworks hold sequencing errors. The method in brief:
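In a synthetic yeast display library (Saccharomyces cerevisiae BJ5465), nanobody expression was induced with galactose for 36–48 hours. FACS gates were set low and high (top ~1%) using anti-HA fluorescence for expression and streptavidin fluorescence for binding of the Sf9 membrane reagent. Each polyreactivity label is drawn from the gate of origin.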
Consider “QVQLVESGGGLVQAGGSLRLSCAASGRISPKNAMGWYRQAPGKERELVATIRKIGGRTYYADSVKGRFTISRDNAKNTVYLQMNSLKPEDTAVYYCATDFAQSYYPDRFDYWGQGTQVTVSS”, for which the “polyreactivity (PSR sort gate)” value is listed as “low polyreactivity”.
Regarding “QVQLVESGGGLVQAGGSLRLSCAASGRISRFYAMGWYRQAPGKERELVAGIRSGDSTNYADSVKGRFTISRDNAKNTVYLQMNSLKPEDTAVYYCAAVVFSDGRYGRANRMYYWGQGTQVTVSS”, the “polyreactivity (PSR sort gate)” value is “high polyreactivity”.
Consider “QVQLVESGGGLVQAGGSLRLSCAASGRISRGNAMGWYRHAPGKEREFVAAISWSGDGTYYADSVKGRFTISRDNAKNTVYLQMNSLKPEDTAVYYCADGATPRYSKYDYWGQGTQGTVSS”, for which the “polyreactivity (PSR sort gate)” value is listed as “low polyreactivity”.
The same measure for “QVQLVESGGGLVQAGGSLRLSCAASGRISRIYAMGWYRQAPGKERELVAAIRGRGGSTYYADSVKGRFTISRDNAKNTVYLQMNSLKPEVTAVYYCAADGWARYEYWGQGTQVTVSS”: “high polyreactivity”.
“QVQLVESGGGLVQAGGSLRLSCAASGRISRNYAMGWYRQAPGKERELVAAINRGGSTYYADSVKGRFTISRDNAKNTVYLQMNSLKPEDTAVYYCAARYPNQYDYWGQGTQVTVSS”: the “polyreactivity (PSR sort gate)” value is listed as “high polyreactivity”.
On to “QVQLVESGGGLVQAGGSLRLSCAASGRISRSNTMGWYRQAPGKERELVAAISRGGGSTYYADSVKGRFTISRDNAKNTVYLQMKSLKPEDTAVYYCAKRSAITGYEYWGQGTQVTVSS”, for which the “polyreactivity (PSR sort gate)” value was “high polyreactivity”.
The same measure for “QVQLVESGGGLVQAGGSLRLSCAASGRISSVYAMGLYRQAPGKERELVAGITWSDARTYYADSVKGRFTISRDNAKNTVYLQMNSLKPEDTAVYYCAADYYYYERDYWGQGTQVTVSS”: “low polyreactivity”; for “QVQLVESGGGLVQAGGSLRLSCAASGRISVANAMGWYIQAPGKERELVARISEGVGSTYYADSVKGRFTISRDTAKNTVYLQMNSLKPEDTAVYYCAAYQDYVYSESLFSVSARMYYWGQGTQVTVSS”: “low polyreactivity”.
The same measure for “QVQLVESGGGLVQAGGSLRLSCAASGRISVVNAMGWYRQAPGKERELVATINRGGSTYADSVKGRFTISRDNAKNTVYLQMNSLKPEDTAVYYCAARTFRISRMDYWGQGTQVTVSS”: “high polyreactivity”; for “QVQLVESGGGLVQAGGSLRLSCAASGRIVEGNVMGWYRQAPGKERELVAGISSGGSTTYADSVKGRFTISRDNAKNTVYLQMNSLKPEDTAVYYCAASRKRFRHSSYRFYYCGQGTQVTVSS”: “high polyreactivity”; for “QVQLVESGGGLVQAGGSLRLSCAASGRIVKFYDMGWYRQAPGKEREFVAAISRRGSSTYYADSVKGRFTISRDNAKNTVYLQMNSLKPEDTAVYYCAADWTFGAIGYYYWGHGTQVTVSS”: “high polyreactivity”.
For “QVQLVESGGGLVQAGGSLRLSCAASGRIVKYAMGWYRQAPGKERELVAAISGSGGTTYYADSVKGRFTISRDNAKNTVYLQMNSLKPEETAVYYCAASRPRPPSSRRMDYWGQGTQVTVSS”, the “polyreactivity (PSR sort gate)” value is “high polyreactivity”.
The same measure for “QVQLVESGGGLVQAGGSLRLSCAASGRIVWYAMGWYRQAPGKERELVAAINWSGGSTYYADSVKGRFTISRDNAKNTVYLQMNSLKPEDTAVYYCAADVRNYWLEYEYWGQGTQVTVSS”: “low polyreactivity”; for “QVQLVESGGGLVQAGGSLRLSCAASGRIVYLNAMGWYRQPPGKERELVAAINTSGDSTYYADSVKGRFTISRDNAKNTVYLQMNSLKPVDTAVYYCAAYVIGPDQFIYDYWGQGTQVTVSS”: “low polyreactivity”; for “QVQLVESGGGLVQAGGSLRLSCAASGRIYCKYAMGRYRQAPGKERELVAGISRGAGRTYYADSVKGRFTISRDNAKNTVYLQMNSLKPADTAVSYCAAVPSYHSTSPFYYWGQGTQVTVSS”: “high polyreactivity”.
“QVQLVESGGGLVQAGGSLRLSCAASGRIYGFNTMGWYRQAPGKERELVAAITTSGVSTYYADSVKGRFTISRDNAKNTVYLQMNSLKPEDTAVYYCAARWYRTGPYKRRDYWGQGTQVTVSS”: the “polyreactivity (PSR sort gate)” value is recorded as “high polyreactivity”.
